The values below are quoted from earlier work in paper PMC4584479.

Data set [1] deals with IL-15Rβ/γc (Homo sapiens) (UniProt P14784).
Data set [2] shares this target. This is another data set of the same source.

Where two headings read alike, the source gives them in different places.

Sequence of UniProt P14784 (P14784 27-240, chain 1 of 2): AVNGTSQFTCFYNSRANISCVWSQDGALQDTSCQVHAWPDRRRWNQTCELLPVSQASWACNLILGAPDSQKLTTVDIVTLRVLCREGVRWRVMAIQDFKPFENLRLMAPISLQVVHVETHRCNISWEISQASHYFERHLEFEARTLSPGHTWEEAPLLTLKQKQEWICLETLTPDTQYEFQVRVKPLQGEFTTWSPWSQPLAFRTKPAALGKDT
Sequence of UniProt P14784 (P31785 23-262, chain 2 of 2, further chain): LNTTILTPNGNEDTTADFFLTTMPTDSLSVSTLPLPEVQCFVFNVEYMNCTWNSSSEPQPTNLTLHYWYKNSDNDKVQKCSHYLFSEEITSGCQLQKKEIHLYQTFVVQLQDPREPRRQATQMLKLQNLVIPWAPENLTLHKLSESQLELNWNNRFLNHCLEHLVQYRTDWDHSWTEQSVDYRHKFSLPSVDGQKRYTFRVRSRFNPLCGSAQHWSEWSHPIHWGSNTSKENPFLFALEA

As usually defined, the Kd is a measure of binding affinity in units of concentration. For the substance IL-15 (from UniProt P40933), the Kd in data set [1] was 13.5 nM.
Regarding “IL-15/IL-15Rα-sushi fusion protein (IL-15 hyperagonist) sushi domain of IL-15Rα fused to IL-15 (from UniProt P40933)”, the Kd in data set [2] is 0.78 nM.
